Data taken from article PMC4604100, “Melanocortin agonists stimulate lipolysis in human adipose tissue explants but not in adipocytes” (BMC Research Notes, 2015).

Tests used:
Details in all cases: modification not given
[1] = molecular target: Melanocortin receptor 3 (Homo sapiens), P41968; test: competition
[2] = molecular target: Melanocortin receptor 4 (Homo sapiens), P32245; test: competition
[3] = molecular target: Melanocortin receptor 5 (Homo sapiens), P33032; test: competition
[4] = molecular target: Melanocortin receptor 1 (Homo sapiens), Q01726; test: 125I-NDP-α-MSH competition binding (membrane filtration)
Melanocortin receptor 1 (Homo sapiens), Q01726, sequence (Q01726 whole entry): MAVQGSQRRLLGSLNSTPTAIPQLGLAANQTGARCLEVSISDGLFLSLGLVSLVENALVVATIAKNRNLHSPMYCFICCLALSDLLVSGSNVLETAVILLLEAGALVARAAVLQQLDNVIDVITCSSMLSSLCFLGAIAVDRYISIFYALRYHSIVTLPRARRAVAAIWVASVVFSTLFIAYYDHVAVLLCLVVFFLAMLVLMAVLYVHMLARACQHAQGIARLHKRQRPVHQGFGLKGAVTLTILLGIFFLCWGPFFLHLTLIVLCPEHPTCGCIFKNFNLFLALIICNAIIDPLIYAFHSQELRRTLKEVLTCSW

Melanocortin receptor 3 (Homo sapiens), P41968, sequence (P41968 whole entry): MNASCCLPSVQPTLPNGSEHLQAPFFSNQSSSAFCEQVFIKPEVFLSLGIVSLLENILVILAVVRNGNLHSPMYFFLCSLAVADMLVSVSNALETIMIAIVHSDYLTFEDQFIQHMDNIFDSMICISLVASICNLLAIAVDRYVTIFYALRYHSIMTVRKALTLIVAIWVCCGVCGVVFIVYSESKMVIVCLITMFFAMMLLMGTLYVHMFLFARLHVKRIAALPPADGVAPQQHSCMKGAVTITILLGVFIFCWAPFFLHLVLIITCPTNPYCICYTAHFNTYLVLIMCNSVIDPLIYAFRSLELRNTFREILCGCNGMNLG
Melanocortin receptor 5 (Homo sapiens), P33032, sequence (P33032 whole entry): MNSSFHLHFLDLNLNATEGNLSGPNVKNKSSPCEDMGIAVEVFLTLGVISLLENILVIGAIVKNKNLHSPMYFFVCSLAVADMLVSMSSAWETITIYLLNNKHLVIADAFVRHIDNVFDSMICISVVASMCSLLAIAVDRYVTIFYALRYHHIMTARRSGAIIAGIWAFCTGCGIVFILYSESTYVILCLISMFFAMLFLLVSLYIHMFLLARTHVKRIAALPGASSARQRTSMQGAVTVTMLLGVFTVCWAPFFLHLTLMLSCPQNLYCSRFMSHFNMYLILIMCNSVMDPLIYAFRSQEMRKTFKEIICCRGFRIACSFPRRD
Melanocortin receptor 4 (Homo sapiens), P32245, sequence (P32245 whole entry): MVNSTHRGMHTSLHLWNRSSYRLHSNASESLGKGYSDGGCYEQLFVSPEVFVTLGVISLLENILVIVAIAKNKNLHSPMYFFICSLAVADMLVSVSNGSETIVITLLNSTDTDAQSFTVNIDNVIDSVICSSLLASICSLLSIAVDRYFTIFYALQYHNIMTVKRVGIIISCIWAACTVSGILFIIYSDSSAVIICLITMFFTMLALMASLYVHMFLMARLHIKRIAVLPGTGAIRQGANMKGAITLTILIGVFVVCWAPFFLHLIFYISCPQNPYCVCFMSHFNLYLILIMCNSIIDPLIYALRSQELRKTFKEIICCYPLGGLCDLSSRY

**Q.** What does the source list for SYSMEHFRWGKPVGKKRRPVKVYPNGAEDESAEAFPLEF [ACTH, P01189]?
**A.** Ki [1]: 11.1 nM; Ki [2]: 1.2 nM; Ki [3]: 46 nM; Ki [4]: 0.09 nM
